According to publication PMC11431768, “Mechanistic Insights into Substrate Recognition of Human Nucleoside Diphosphate Kinase C Based on Nucleotide-Induced Structural Changes” (International Journal of Molecular Sciences, 2024):

Assays:
[1] = target: the molecule itself; assay: SEC-MALS; SEC-RI-MALS; Superdex 200 5/150; samples at 60 to 600 µM; gel filtration buffer (20 mM Tris-HCl, 300 mM NaCl, 5 mM MgCl2, DTT); 0.3 mL/min; RI at 25 °C
[2] = target: the molecule itself; assay: mass photometry; His-tagged NDPK-C directly after affinity purification

B1: human nucleoside diphosphate kinase C, N-terminally truncated (residues Thr18–Glu169), untagged (enzyme, UniProt Q13232 18-169, looked up)
chain: TGAHERTFLAVKPDGVQRRLVGEIVRRFERKGFKLVALKLVQASEELLREHYAELRERPFYGRLVKYMASGPVVAMVWQGLDVVRTSRALIGATNPADAPPGTIRGDFCIEVGKNLIHGSDSVESARREIALWFRADELLCWEDSAGHWLYE
notes: human NDPK-C (nme3 gene product), residues Thr18-Glu169 of UniProt Q13232; The forward primer puts a start codon (Met) before Thr18; The results speak of a 156-residue subunit, while Thr18-Glu169 is 152 residues; The extra residues are probably what TEV cleavage leaves of the tag plus the Met; also called NDPK-C; NDPK isoform C; source: E. coli BL21 (DE3), purified (HisTrap, SEC, TEV cleavage, …)
stoichiometry N [1]: 6

B2: His-tagged human NDPK-C (residues Thr18–Glu169) (enzyme, UniProt Q13232 18-169, looked up)
chain: B1 chain
notes: human NDPK-C (nme3 gene product), residues Thr18-Glu169 of UniProt Q13232; the expression plasmid encodes a 173 amino acid polypeptide including the N-terminal TEV-cleavable His-tag; 173 residues in all; also called His-NDPK-C; His-tagged NDPK-C; not shown: His6, N-terminal, kept
stoichiometry N [2]: 6
